This note sets out measurements from publication PMC9242859.

The assay has as its target C-terminally TAMRA-conjugated and N-terminally myristoylated preS1 peptide, amino acids 2-48 of the preS1 region (preS1 probe). The experiment in a line: preS1 binding assay (fluorescent preS1 probe attachment to cells, fluorescence imaging). To be noted: Huh7 cells transiently expressing wild-type or mutant NTCP; parent: est. 1.0; read off a plot.

Turning to “wild-type NTCP transiently expressed in Huh7 cells (from UniProt Q14973) R84A; N87A”, the ratio to parent (fold vs control) worked out at 0.46.

Take “wild-type NTCP transiently expressed in Huh7 cells (from UniProt Q14973) R143A; D147A”: the ratio to parent (fold vs control) came out at 1.1.
